Data from the supplement of paper PMC9170038.

System: K4 kissing-loop RNA reporter
Experiment: apparent KD of K4 kissing-loop reporter; higher = weaker reporter binding
Details: Eterna round: R107
Procedure: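 RNA-MaP round R107: designed RNA switches with theophylline, tryptophan, arginine or FMN aptamers are transcribed on-chip within common flanks. They are titrated with a labelled K4 kissing-loop RNA reporter in RNA-MaP buffer (100 mM Tris pH 7.5, 80 mM KCl, 4 mM MgCl2), without ligand or with the indicated ligand. Median apparent KD per design.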

[1] = input ligand: theophylline 20 uM
[2] = input ligand: tryptophan 2.4 mM
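Note: bound reporter read as fluorescence of individual clusters on recovered sequencing chips by microscopy, with normalized cluster intensities fitted with a binding model.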

Sequence | apparent KD of K4 kissing-loop reporter (input ligand: FMN 200 uM) | apparent KD of K4 kissing-loop reporter (input ligand: arginine 13.2 mM) | apparent KD of K4 kissing-loop reporter (input ligand: none) | apparent KD of K4 kissing-loop reporter [1] | apparent KD of K4 kissing-loop reporter [2]
GCCGUAGAUUGAAGGAGCGGUAUGGGCGUUGGCUGAGUGAUGUUCAGGAAAAGUGGCUUCUACCAGGUAGGUCGCAAUCUACGGC | 133 nM | 110 nM | 130 nM | 139 nM | 109 nM
GCCGUAGAUUGAAGGAGCGUGGACCUAUCGCUUGAACAGUGAUGUUGUUUAUCUAGGAAGCCGCAGGUAGGUCGCAAUCUACGGC | 331 nM | 292 nM | 420 nM | 337 nM | 382 nM
GCCUAGGCUCGAAAGAGCCUAGGCUGGGCUCAGGAUAUCCGGAAACGGAGAAGGGAGGGACUAGUGAUGUUAGGGAUUCCCUAUG | 461 nM | 264 nM | 290 nM | 251 nM | 203 nM
GCCUGUGCACGAAGGAGCGCCGUGACAGGUUACUGCCUUGGGCAGUGAUGUUGCUCAAUCUGGCAGGUAGGUCGCGUGCACAGGC | 132 nM | 145 nM | 166 nM | 138 nM | 102 nM
GCCUUUGUACAGUCCGUUUGUCAUGUGGAUACCAGCAGGAUAGCUUGCCCUUGGCAGCCAUCCAUUUAAUGUAGUGAUGUUACGC [theeternabot_exclusion_KL_Theo_A_13] | 398 nM | 440 nM | 477 nM | 412 nM | 338 nM
GCGAAGAAGGUUGAUACCAGUCUUGCGUGUCAAGCGCCAGUGAUGUUGGGCCUGUAGAUCGACCCUUGGCAGCAACCUCGAAAUG [theeternabot_sameState_KL_Theo_B_28] | 836 nM | 563 nM | 844 nM | 748 nM | 655 nM
GCGCGCGGCGGAGGAUAUAGCAGGUGAUCCGAGAAAGUGAGUGAUGUUUACGGAGAUGAUGAUAUGUUAGAAGGCCGCCGCGCGC [abcdefghijklmnopqrstuv] | 515 nM | 416 nM | 437 nM | 425 nM | 558 nM
GCGCGGCCCAGUGAUGUUGGGCCUCGGAGACGAGGACCGGUACGGCCGCCACUCGUCCGCGCAGCUGAGGCAAAAGCCUCGGCAA [Omei KL Tryp A SS B v6] | 207 nM | 190 nM | 228 nM | 187 nM | 107 nM
GCGCGUCAUGUCAGCGGUGACACUGUCGAUACCAGCGCCGUAAGGCGCCCUUGGCAGCGACGUGCUGGAGUGAUGUUCCAGCGUC [#2 Exclusion - Theophylline A Attempt #20 (HarryS)] | 178 nM | 110 nM | 149 nM | 126 nM | 141 nM
GCGGCGGGCCAAGGAUAUAUAUUGGAGUGAUGUUGUUCAUUUAUUUGAGCUAGUGAUGUUGGUCAAAUAGAAGGUGGCCCGCCGC [whbob_Ex_FMNB__2th217] | 56.5 nM | 34.6 nM | 59.3 nM | 44.8 nM | 62 nM
GCGGUGUUAUGCCCGAGGGUAUAGUUGCCAAAGGAUAUGAUUGUUGUCAGAAGGUUGCGCUUGAUCAGUGAUGUUGGUCUCCAAC [theeternabot_sameState_KL_FMN_A_12] | 398 nM | 275 nM | 373 nM | 342 nM | 337 nM
GCGUGCCAUGCAGGAUAUAGUUGUUCGAGUGAUGUUCGAGCCUUGCUAAGUUCGGAGCAUCAGCUUCUAGAAGGGCAUGGCACGC | 156 nM | 205 nM | 618 nM | 241 nM | 347 nM
GCUAGGCAUGCAGGAUAUCGUGGAGUGAUGUUCCGUUGGCUGCUAGCGGAAAACGCUAGCAGCCUACGAGAAGGGCAUGCCUAGC | 192 nM | 356 nM | 425 nM | 410 nM | 368 nM
GCUAUGGUAGGAAGGAGCGCUACUUUGUUUUUACGAGUGAUGUUCGGUAGCAGAGUGUUAAAGCAGGUAGGUCGCCUACUAUAGC [Arginine B K4 19] | 225 nM | 244 nM | 244 nM | 307 nM | 280 nM
GCUCGGGAGUGAUGUUCCAAGUGGUGUUAACGAGGACCGGUACGGCCGCCACUCGAUACGGCCGGACCGUAGGAUAAACUGGAGC [Same State - Tryptophan A (Freestyle 12)] | 149 nM | 110 nM | 125 nM | 185 nM | 144 nM
GGACGACAGGCGGCCGCCACUCACAGCAGCCAGCGAGUGAUGUUCGUAGCGGAGUGAUGUUCCGAGAGGACCGGGUCUGCAGUCC [Same State Tryptophan B GF 17] | 246 nM | 178 nM | 224 nM | 168 nM | 223 nM
GGACGACAGUCGGCCGCCACUCACAGCCGCCAGUGAUGUUGGAUUGUAGCGGAGUGAUGUUUCGCGAGGACCGGGACUGCAGUCC [Same State Tryptophan B GF 15] | 417 nM | 380 nM | 455 nM | 413 nM | 460 nM
GGAGGCCAGGCCUGCGAAGUGAUGUUUUGACGAGGACCGGUACGGCCGCCACUCGAAUGUUCUAUCAUCGUACGAACUUCUGCGU [theeternabot_exclusion_KL_Trp_A_26] | 593 nM | 415 nM | 496 nM | 527 nM | 394 nM
GGAGGUUGGUGCGAUACCAGACCUGCAGUGAUGUUGCGCCAAAGUGAGUGAUGUUCACCGGUCCCUUGGCAGCGCGUCCCUUUAG [Same State Theophylline B GF 15] | 848 nM | 729 nM | 1190 nM | 707 nM | 860 nM
GGAGUUACCUGGGAUACCAGCCGGAGGCCCAGAGCUCGGAGUGAUGUUCUGGGAUGUUUCGGCCCUUGGCAGCUCUGGGUCUCCC [#2 Exclusion - Theophylline B Attempt #6 (HarryS)] | 1520 nM | 512 nM | 535 nM | 505 nM | 521 nM
GGAUAGGACAGAGGAUAUCCAGUGAUGUUGGAGAAUUCUCCUUCAACAUGUCACAAAAGUGGCAUGGGAGAAGGCUGUCCUAUCG [Mod of Eli's FmnBX 29 v2] | 388 nM | 120 nM | 122 nM | 99.7 nM | 108 nM
GGAUAGGACAGAGGAUAUCUCUGAGGCAAGAAAACUUGUCUCAAAAGAGAUGACUCAGUGAUGUUGAGAGAAGGCUGUCCUAUCG [FmnBX 8 - #SwitchBubble #StaticStem] | 256 nM | 143 nM | 144 nM | 147 nM | 153 nM

Sequence | apparent KD of K4 kissing-loop reporter (input ligand: FMN 200 uM) | apparent KD of K4 kissing-loop reporter (input ligand: arginine 13.2 mM) | apparent KD of K4 kissing-loop reporter (input ligand: none) | apparent KD of K4 kissing-loop reporter [1] | apparent KD of K4 kissing-loop reporter [2]
GGAUAGGACAGAGGAUAUGGUAGUGAUGUUACCAAACUGGUUAUUAAUGUCAGAAAACUGGCAAAUCCAGAAGGCUGUCCUAUCG [KL-XFMN-B13] | 180 nM | 63.8 nM | 75.7 nM | 60.5 nM | 62.9 nM
GGAUAGGACAGAGGAUAUGGUAGUGAUGUUACCAACAGCCUACUGUCAAUAAAGACGGUUGGCUGACCAGAAGGCUGUCCUAUCG [Mod of Eli's FmnBX 26 v1] | 564 nM | 132 nM | 145 nM | 148 nM | 142 nM
GGAUAGGACUGAGGAUAUGGGCUAGGCAAGAAUAACUUGUCUAGCAAAUCCAUGAGGAGUGAUGUUCCAGAAGGCGGUCCUAUCG [FmnBX 1 U10+G76] | 601 nM | 127 nM | 131 nM | 173 nM | 231 nM
GGAUAGGAUAGAGGAUAUGGUUUAUGCAAGAAUAACUUAUCGUGUAAAUCCAUAGGGAGUGAUGUUCCAGAAGGCUGUCCUAUCG [MatMod 12 - Jieux - Exclusion - FMN B] | 335 nM | 201 nM | 239 nM | 246 nM | 173 nM
GGAUAUGUAACAGAUACCAGCCGACGACAGUCACUGUGUCAUGUAGUGAUGUUACAAUCUGGCCCUUGGCAGCUGUCUCUGGUUU [theeternabot_exclusion_KL_Theo_B_27] | 310 nM | 214 nM | 278 nM | 250 nM | 250 nM
GGAUGGUAGGCGGCCGCCACUAAAAGUGAACACAUACAAGCCAGUGAUGUUGGUAUGAUGGACUAUAGGACCGGGCCUAGAUAGA [Exclusion - Tryptophan B (Freestyle 6)] | 468 nM | 410 nM | 522 nM | 454 nM | 466 nM
GGCACUUUUGGUAGACACCAUCUACCUCUAUAGGAUAUGCCGAAAGGCAGAAGGAUAGACCUACAGAGUGAUGUUCUGCGUGCCU | 686 nM | 801 nM | 1230 nM | 946 nM | 849 nM
GGCAGUGAUGUUGCCUAAGCAAUGCAUGCGGAGGAUAUUCGUUUGGGAAGAAGGCCGCAGCGUUCUCUCGAGUGAUGUUCGAGUA [Same State FMN A GF 20] | 155 nM | 141 nM | 153 nM | 158 nM | 126 nM
GGCAUCCAUGGACAUAGUGAUGUUAUGUGCCGAGGACCGGUACGGCCGCCACUCGACCAUGGAUGCCGCAAUCGGAAACGAUUGC | 1090 nM | 915 nM | 1610 nM | 888 nM | 115 nM
GGCCGGCCGGGAAGGAGCGGGAGUGAUGUUUUCGCAAAGAAAGAUAUAAAAGAAACGAAAUCCCAGGUAGGUCGCCCGGCCGGUU | 64.4 nM | 113 nM | 91.3 nM | 160 nM | 66.4 nM
GGCGCUGUCUGUGCCGCCCUCCUCGUCCCUCGAGGACCGGUACGGCCGCCACUCGAGUGAUGUUCGGGUAGCCCUCCCUGCCAGC [BDazzled - #22 Exc. Tryptophan A] | 462 nM | 320 nM | 492 nM | 382 nM | 233 nM
GGCGGCCGCGCGAAAGCGCGGCCGGCCGAUACCAGCGCGACGGCGCGCCCUUGGCAGCGGCGCCGAGUGAUGUUCGGCCUGCCGU [#2 Same State - Theophylline A Attempt #13 (HarryS)] | 126 nM | 122 nM | 117 nM | 145 nM | 116 nM
GGGAGAAGUGGUGUUGAUUAAGAAGCGGAAGGAGCGCCGAAGAAGGCAGGUAGGUCGCCGAAAUAUAGUGAUGUUAUAUAAAGGG [ExArg.B] | 155 nM | 184 nM | 137 nM | 218 nM | 152 nM
GGGAGUAGUGCGGCCGCCACUGAGAAAGAAGAAGAAUAUAGUGAUGUUAUAUAGGAAAGGAAGAACAGGACCGGGCAUUAGAGGG [SSTRyptB.C] | 163 nM | 171 nM | 147 nM | 243 nM | 131 nM
GGGAGUUAUUACGGCAGGGUCGAUACGGAUACCAGUAGGCGGCUCUACCCUUGGCAGCCGUAACAUGGUAGUGAUGUUAUCAGUC [theeternabot_exclusion_KL_Theo_A_24] | 527 nM | 420 nM | 518 nM | 468 nM | 405 nM
GGGAUGUAGGGAAGGAGCGCUUUGCGAAUAUUAAUGAGUGAUGUUCGUAGAUAUUUGUAAUGGCAGGUAGGUCGCCCUAUAUCCC [Skye_SS_AB] | 197 nM | 131 nM | 166 nM | 151 nM | 157 nM
GGGCCUAUUGAUGCUGGAGCAAUUCUGGAAGGAGCGCUCAAAGGAGCAGGUAGGUCGCCAGUAUGCAAGGGCAGUGAUGUUGCCC [Ersoarxe] | 238 nM | 164 nM | 233 nM | 145 nM | 189 nM
GGGCGUGGCGCGGCCGCCACUGGGCCUGGGCGCUCGCUGAGUGAUGUUCGUCGGCGGCUGGGUCGUAGGACCGGGUGCUGGUUGG [BDazzled - #7 SS Tryptophan B] | 529 nM | 309 nM | 438 nM | 424 nM | 302 nM
GGGUCUGUCGGAAGGAGCGCACUAUGGAGUGAUGUUCCAUGACCGCACAGCUUGCGGUCAGUGCAGGUAGGUCGCCGAUAGCUUU [Usquso] | 277 nM | 169 nM | 197 nM | 286 nM | 164 nM
GGGUGGCAGGCGGCCGCCACUCUGAGCACCCACUGAGUGAUGUUCGUGGCGUAAGACUGUUCGUAGAGGACCGGGUUUGUUGUUC [Same State Tryptophan B GF 23] | 203 nM | 143 nM | 214 nM | 306 nM | 205 nM
GGUAGCAUGGCGGCCGCCACUACCUAGUGAUGUUAGGCUGUGGACAUAGGAGCAAGACAAAUAUGUAGGACCGGGCCAUGCUACC | 126 nM | 92.8 nM | 111 nM | 124 nM | 131 nM
